This note sets out measurements from patent US20250326843A1 (published 2025).

One may read the EC50 as the concentration needed to bring the measured effect to its halfway point.

For one experiment, the target named is CD3 on human T cells (human, UniProt P07766 23-207). Description: flow cytometry; T cells. For orientation: In flow cytometry, cells or beads pass a laser one at a time.
A further experiment has as its target T1, human B7-H4 (human, UniProt Q7Z7D3 25-282).
T1 chain: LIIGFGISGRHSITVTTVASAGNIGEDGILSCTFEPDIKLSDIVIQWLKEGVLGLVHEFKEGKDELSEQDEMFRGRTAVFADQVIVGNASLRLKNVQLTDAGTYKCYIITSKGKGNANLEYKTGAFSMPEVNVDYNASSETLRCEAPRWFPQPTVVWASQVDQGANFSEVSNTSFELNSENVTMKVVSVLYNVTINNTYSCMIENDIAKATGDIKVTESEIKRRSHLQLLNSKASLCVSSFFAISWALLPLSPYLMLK
Description: flow cytometry; CHO-K1/hu B7H4 cells.

A further experiment addresses T2, murine B7-H4 (murine, UniProt Q7TSP5 25-257).
T2 chain: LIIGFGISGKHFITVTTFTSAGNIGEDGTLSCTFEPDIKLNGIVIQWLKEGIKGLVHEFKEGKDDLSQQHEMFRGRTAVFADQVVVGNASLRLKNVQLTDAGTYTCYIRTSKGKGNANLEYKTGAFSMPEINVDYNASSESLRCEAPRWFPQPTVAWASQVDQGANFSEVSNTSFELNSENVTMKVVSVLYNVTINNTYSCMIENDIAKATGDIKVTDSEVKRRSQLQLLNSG
Description: flow cytometry; CHO-K1/m B7H4 cells.

The target of a further experiment is T3, cynomolgus monkey B7-H4 (cynomolgus monkey, UniProt A0A2K5U6P5 25-282).
T3 chain: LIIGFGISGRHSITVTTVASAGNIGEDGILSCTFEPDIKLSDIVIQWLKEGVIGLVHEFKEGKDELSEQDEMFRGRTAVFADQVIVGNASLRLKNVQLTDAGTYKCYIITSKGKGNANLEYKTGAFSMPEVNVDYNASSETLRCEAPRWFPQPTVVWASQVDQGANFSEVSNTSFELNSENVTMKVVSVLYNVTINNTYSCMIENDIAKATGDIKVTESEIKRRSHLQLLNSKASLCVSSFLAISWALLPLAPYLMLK
Description: flow cytometry; CHO-K1/cyno B7H4 cells.

The target of another experiment is human 4-1BB (human, UniProt Q07011 24-255). Description: flow cytometry.
Chain of human 4-1BB (Q07011 24-255): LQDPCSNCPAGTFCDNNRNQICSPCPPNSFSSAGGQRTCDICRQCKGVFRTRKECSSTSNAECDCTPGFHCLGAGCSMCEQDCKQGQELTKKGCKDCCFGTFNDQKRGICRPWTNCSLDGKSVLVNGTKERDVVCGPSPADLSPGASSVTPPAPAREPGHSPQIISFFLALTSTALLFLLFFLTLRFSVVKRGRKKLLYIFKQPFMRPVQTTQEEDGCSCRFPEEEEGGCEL

Chain of CD3 on human T cells (P07766 23-207): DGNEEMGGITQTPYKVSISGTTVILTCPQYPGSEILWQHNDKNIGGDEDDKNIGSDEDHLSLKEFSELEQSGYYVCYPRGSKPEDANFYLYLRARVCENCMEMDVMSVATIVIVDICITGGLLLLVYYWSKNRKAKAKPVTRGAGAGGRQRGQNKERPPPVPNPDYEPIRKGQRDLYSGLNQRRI

B1: B7-H4×CD3 bispecific antibody PR003733 (bispecific antibody)
light: QAVVTQEPSLTVSPGGTVTLTCRSSTGAVTTSNYANWVQQKPGQAPRGLIGGTNKRAPWTPARFSGSLLGDKAALTLLGAQPEDEAEYFCALWYSNLWVFGGGTKLTVLGQPKAAPSVTLFPPSSEELQANKATLVCLISDFYPGAVTVAWKADSSPVKAGVETTTPSKQSNNKYAASSYLSLTPEQWKSHRSYSCQVTHEGSTVEKTVAPTECS
heavy: not shown
chain: EIVMTQSPASLSVSPGERATLSCRASQSVSSNLAWYQQKPGQAPRLLIYGASTRATGIPARVSGGGSGTEFTLTISSLQSEDFAVYYCQQYKNWPFTFGPGTKLEIKGGGGSGGGGSGGGGSGGGGSQVQLVQSGAEVKKPGSSMRVSCKASEDTFSSYAISWVRQAPGQGLEWMGGTAPIFGTTNYAQKFQGRVTITADKSTSTAYMELSSLRSEDTAVYYCARGGPYFDYWGQGTLVTVSSASEPKSSDKTHTCPPCPAPEAAGGPSVFLFPPKPKDTLMISRTPEVTCVVVDVSHEDPEVKFNWYVDGVEVHNAKTKPREEQYNSTYRVVSVLTVLHQDWLNGKEYKCKVSNKALPAPIEKTISKAKGQPREPQVCTLPPSREEMTKNQVSLSCAVKGFYPSDIAVEWESNGQPENNYKTTPPVLDSDGSFFLVSKLTVDKSRWQQGNVFSCSVMHEALHNHYTQKSLSLSPGK
For B1, the concentration for a half-maximal effect (EC50) in the experiment with CD3 on human T cells was approximately 59.3 nM; with human B7-H4, 7.7 nM; in the experiment with murine B7-H4, approximately 250 nM; with cynomolgus monkey B7-H4, 5.83 nM.

B2: B7-H4×CD3 bispecific antibody PR003899 (bispecific antibody)
light: QAVVTQEPSLTVSPGGTVTLTCRSSTGAVTTSNYANWVQQKPGQAPRGLIGGTNKRAPWTPARFSGSLLGDKAALTLLGAQPEDEAEYFCALWYSNLWVFGGGTKLTVLGQPKAAPSVTLFPPSSEELQANKATLVCLISDFYPGAVTVAWKADSSPVKAGVETTTPSKQSNNKYAASSYLSLTPEQWKSHRSYSCQVTHEGSTVEKTVAPTECS
heavy: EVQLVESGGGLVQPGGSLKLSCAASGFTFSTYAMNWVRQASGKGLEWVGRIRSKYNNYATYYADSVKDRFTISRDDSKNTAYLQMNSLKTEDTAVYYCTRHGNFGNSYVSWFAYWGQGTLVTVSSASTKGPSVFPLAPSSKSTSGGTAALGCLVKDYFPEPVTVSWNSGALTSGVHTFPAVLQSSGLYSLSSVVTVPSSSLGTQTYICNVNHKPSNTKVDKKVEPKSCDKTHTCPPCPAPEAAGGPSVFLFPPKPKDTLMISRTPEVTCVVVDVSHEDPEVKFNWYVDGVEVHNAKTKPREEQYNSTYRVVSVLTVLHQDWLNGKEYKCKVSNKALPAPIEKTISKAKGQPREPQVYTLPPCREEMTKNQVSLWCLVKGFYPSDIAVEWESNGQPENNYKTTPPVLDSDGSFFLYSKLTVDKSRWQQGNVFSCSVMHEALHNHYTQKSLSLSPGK
chain: EIVMTQSPASLSVSPGERATLSCRASQSVSSNLAWYQQKPGQAPRLLIYGASTRATGIPARVSGGGSGTEFTLTISSLQSEDFAVYYCQQYKNWPFTFGPGTKLEIKGGGGSGGGGSGGGGSGGGGSQVQLVQSGAEVKKPGSSMRVSCKASEDTFSSYAISWVRQAPGQGLEWMGGTAPIFGTTNYAQKFQGRVTITADKSTSTAYMELSSLRSEDTAVYYCARGGPYFDYWGQGTLVTVSSASEPKSSDKTHTCPPCPAPEAAGGPSVFLFPPKPKDTLMISRTPEVTCVVVDVSHEDPEVKFNWYVDGVEVHNAKTKPREEQYNSTYRVVSVLTVLHQDWLNGKEYKCKVSNKALPAPIEKTISKAKGQPREPQVCTLPPSREEMTKNQVSLSCAVKGFYPSDIAVEWESNGQPENNYKTTPPVLDSDGSFFLVSKLTVDKSRWQQGNVFSCSVMHEALHNHYTQKSLSLSPGK
Consider B2, for which the EC50 in the experiment with CD3 on human T cells is approximately 201 nM; in the experiment with human B7-H4 it was 6.06 nM; in the experiment with murine B7-H4 it was approximately 62.5 nM; in the experiment with cynomolgus monkey B7-H4, 4.96 nM.

B3: Urelumab (antibody, V domains shown)
VH: QVQLQQWGAGLLKPSETLSLTCAVYGGSFSGYYWSWIRQSPEKGLEWIGEINHGGYVTYNPSLESRVTISVDTSKNQFSLKLSSVTAADTAVYYCARDYGPGNYDWYFDLWGRGTLVTVSS
VL: EIVLTQSPATLSLSPGERATLSCRASQSVSSYLAWYQQKPGQAPRLLIYDASNRATGIPARFSGSGSGTDFTLTISSLEPEDFAVYYCQQRSNWPPALTFGGGTKVEIK
Take B3: the concentration for a half-maximal effect (EC50) with human 4-1BB stood at 1.63 nM.
